Results taken from US20210324351, “STRUCTURE OF THE HUMAN CGAS-DNA COMPLEX AND USES THEREOF” (Presodent and Fellows of Harvard College, published 2021).

Experiments:
[1] = molecular target: hcGAS catalytic domain WT (Homo sapiens, UniProt Q8N884 SEQ:1-366); assay: EMSA; gradient dialysis to 50 mM KCl, 4 C; preferentially higher-order oligomers; settings: tags: untagged (6xHis-SUMO2 removed with SENP2)
Method: (§1) cGAS-DNA complexes were stably assembled using a method adapted from a nucleosome assembly gradient dialysis protocol (Lee and Narlikar (2001) Current protocols in molecular biology Chapter 21, Unit 21.26), and complex formation was measured by electrophoretic mobility shift analysis. Briefly, a concentration gradient of recombinant protein (0.2, 0.4, 2, 10 μM) was incubated with 45 bp dsDNA (2 μM) in a high-salt buffer containing 20 mM HEPES-NaOH pH 7.8, […], 1 mM DTT at 4° C. for 20 min. The reconstitution mixture was then transferred into 8-10 kDa molecular weight cut-off dialysis tubing (Spectrum Labs), and placed into a beaker of the high-salt buffer. The KCl concentration was reduced gradually by slowly replacing high-salt buffer with low-salt buffer (20 mM HEPES-KOH pH 7.5, 50 mM KCl, 1 mM DTT) with a peristaltic pump (Bio-Rad) at a rate of […] for 48 hr at 4° C. After gradient dialysis, reactions were supplemented to 5% glycerol, and subsequently separated on a 2% agarose gel in 0.5×TBE buffer at 4° C. […] Alternatively, where indicated in FIGS. 8A and 8C, cGAS-DNA complexes were assembled by incubating directly in reaction buffer containing 20 mM HEPES-NaOH pH 7.8, […], 1 mM DTT at 4° C. for 20 min and analyzed by electrophoretic mobility shift analysis as indicated above. […]

[2] = molecular target: T1, hcGAS K187N/L195R (hcGAS*) (Homo sapiens, UniProt Q8N884 SEQ:1-366); assay: EMSA; gradient dialysis to 50 mM KCl, 4 C; stable low-MW complex restored, oligomers unaffected; settings: tags: untagged (6xHis-SUMO2 removed with SENP2); chain copies: 2 (2:2 complex with DNA, stated)
T1 chain: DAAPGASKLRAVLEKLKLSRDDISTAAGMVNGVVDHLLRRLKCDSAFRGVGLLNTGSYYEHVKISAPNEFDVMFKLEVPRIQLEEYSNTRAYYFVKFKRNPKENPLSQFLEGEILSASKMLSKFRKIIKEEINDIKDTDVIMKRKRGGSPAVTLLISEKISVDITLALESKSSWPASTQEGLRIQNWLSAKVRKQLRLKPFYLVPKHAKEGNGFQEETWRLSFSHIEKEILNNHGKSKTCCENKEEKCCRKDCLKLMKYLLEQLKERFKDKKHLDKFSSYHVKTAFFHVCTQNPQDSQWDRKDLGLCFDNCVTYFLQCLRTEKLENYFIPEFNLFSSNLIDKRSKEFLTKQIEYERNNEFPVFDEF
Method: as §1

[3] = molecular target: mcGAS humanized K187/L195 (UniProt Q8C6L5 SEQ:1-361, N172K,R180L); assay: EMSA; gradient dialysis to 50 mM KCl, 4 C; low-MW complex ablated, higher-order oligomers retained; settings: tags: untagged (6xHis-SUMO2 removed with SENP2)
mcGAS humanized K187/L195, sequence (Q8C6L5 147-507 N172K/R180L): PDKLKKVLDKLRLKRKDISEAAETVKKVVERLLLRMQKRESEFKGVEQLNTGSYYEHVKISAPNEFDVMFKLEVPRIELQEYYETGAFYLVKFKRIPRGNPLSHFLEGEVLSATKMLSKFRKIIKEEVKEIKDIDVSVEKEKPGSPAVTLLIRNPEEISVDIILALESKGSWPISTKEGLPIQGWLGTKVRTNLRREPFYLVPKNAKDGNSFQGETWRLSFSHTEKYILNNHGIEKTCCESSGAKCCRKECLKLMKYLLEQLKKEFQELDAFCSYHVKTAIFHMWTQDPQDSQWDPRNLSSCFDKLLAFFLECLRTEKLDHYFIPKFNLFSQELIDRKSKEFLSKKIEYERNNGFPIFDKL
Method: as §1

[4] = molecular target: mcGAS catalytic domain WT (UniProt Q8C6L5 SEQ:1-361); assay: EMSA; gradient dialysis to 50 mM KCl, 4 C; minimal complex plus higher-order oligomers; settings: tags: untagged (6xHis-SUMO2 removed with SENP2)
mcGAS catalytic domain WT, sequence (Q8C6L5 147-507): as the sequence (Q8C6L5 147-507 N172K/R180L) above, with K26N, L34R counted along it
Method: as §1

Measured: binding result

B1: 45 bp interferon stimulatory DNA (dsDNA)
DNA 1: TACAGATCTACTAGTGATCTATGACTGATCTGTACATGATCTACA
DNA 2: TGTAGATCATGTACAGATCAGTCATAGATCACTAGTAGATCTGTA
binds: all assays above
